In patent US8349318B2, “Use of specifically engineered enzymes to enhance the efficacy of prodrugs” (The Board of Trustees of the University of Illinois, priority 2008, dated 2013):

How the values were obtained:
[1] = tested on: T1, Cc1cn([C@@H]2C[C@@H](O)[C@H](CO)O2)c(=O)[nH]c1=O; assay: Kinetic assay of nucleoside phosphorylation by R104Q-D133A dCK; format: biochemical, human; conditions: other: nucleoside 200 uM, 1 mM ATP
T1 construct: made in house

[2] = tested on: Cc1cn([C@@H]2C[C@@H](O)[C@H](CO)O2)c(=O)[nH]c1=O; assay: purified protein, by the assay type; conditions: other: Table 9; pH 7.5; 37.0 °C
[3] = tested on: Nc1ccn([C@@H]2O[C@H](CO)[C@@H](O)C2(F)F)c(=O)n1; assay: purified protein, by the assay type; conditions: other: Table 9; pH 7.5; 37.0 °C
[4] = tested on: Nc1nc2c(ncn2[C@H]2C[C@H](O)[C@@H](CO)O2)c(=O)[nH]1; assay: purified protein, by the assay type; conditions: other: Table 9; pH 7.5; 37.0 °C

Chain of Wild Type dCK (Homo sapiens) (chain, as listed by the source): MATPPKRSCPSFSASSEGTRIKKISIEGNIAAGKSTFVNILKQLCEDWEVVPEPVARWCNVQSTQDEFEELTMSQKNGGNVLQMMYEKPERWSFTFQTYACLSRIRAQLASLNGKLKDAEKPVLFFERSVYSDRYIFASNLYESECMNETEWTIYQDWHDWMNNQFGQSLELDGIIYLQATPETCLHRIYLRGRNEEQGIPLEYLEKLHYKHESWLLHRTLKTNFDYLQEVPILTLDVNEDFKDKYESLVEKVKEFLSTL
Chain of dCK R104L/D133A (Homo sapiens; D133A/R104L) (chain, as listed by the source R104L D133A D133A R104L): as the sequence (chain, as listed by the source) above, with R104L, D133A counted along it
Chain of R104Q-D133A dCK (Homo sapiens; D133A/R104Q) (chain, as listed by the source R104Q D133A D133A R104Q): as the sequence (chain, as listed by the source) above, with R104Q, D133A counted along it

Substance | kcat [1] [s⁻¹] | Km [2] [µM] | kcat [2] [s⁻¹] | Km [3] [µM] | kcat [3] [s⁻¹] | Km [4] [µM] | kcat [4] [s⁻¹]
R104Q-D133A dCK (Homo sapiens; D133A/R104Q) | 0.24 |  |  |  |  |  | 
dCK R104L/D133A (Homo sapiens; D133A/R104L) |  | 17.8 ± 1.6 | 1.33 ± 0.01 | 33.8 ± 5.3 | 2.01 ± 0.08 | 2266 ± 823 | 3.66 ± 0.01
Wild Type dCK (Homo sapiens) |  |  |  | 16.1 ± 3.5 | 0.39 ± 0.03 | 231.0 ± 20.0 | 2.60 ± 0.10
